Data on 40 sequences can be found in the supplement of paper PMC7877785.

± gives the uncertainty stated by the source.

The nature of this data set: self-splicing fitness, log relative to wild type (ln ratio); higher = more splicing; Tetrahymena group I intron in knt gene, E. coli kanamycin selection, DiMSum; sequences stand for … in CUCUCU…GGAGGGAAAAGUUAUCAGGCAUGCACCUGGUAGCUAGUCUUUAAACCAAUAGAUUGCAUCGGUUUAAAAGGCAAGACCGUCAAAUUGCGGGAAAGGGGUCAACAGCCGUUCAGUACCAAGUCUCAGGGGAAACUUUGAGAUGGCCUUGCAAAGGGUAUGGUAAUAAGCUGACGGACAUGGUCCUAACCACGCAGCCAAGUCCUAAGUCAACAGAUCUUCUGUUGAUAUGGAUGCAGUUCACAGACUAAAUGUCGGUCGGGGAAGAUGUAUUCUUCUCAUAAGAUAUAGUCGGACCUCUCCUUAAUGGGAGCUAGCGGAUGAAGUGAUGCAACACUGGAGCCGCUGGGAACUAAUUUGUAUGCGAAAGUAUAUUGAUUAGUUUUGGAGUACUCGUGGUCG
Put shortly: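 The eight P1ex-region nucleotides of an intron in the knt kanamycin-resistance gene on pET-22b(+) were all randomised and the library put into E. coli BL21(DE3). Six replicate transformations were grown overnight at 37°C or 30°C on LB agar with or without 25 μg/mL kanamycin, together with 100 μg/mL carbenicillin, 50 μM IPTG and 0.2% rhamnose. Colonies were pooled and amplicon-sequenced on an Illumina HiSeq 2500. Fitness from DiMSum is the error-weighted combination of wild-type-normalised replicate fold changes, kanamycin over none.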

For the sequence UGACAGCAAUAUUACGUGGG, the “self-splicing fitness (ln)” value by setting is: (30 °C) -3.76 ± 0.14; (37 °C) -0.757 ± 0.081.

Turning to CGCUAGCAAUAUUACGUUAG, the “self-splicing fitness (ln)” value by setting is: (30 °C) -3.47 ± 0.18; (37 °C) -2.89 ± 0.24.

Turning to GCCAAGCAAUAUUACGGCUC, the “self-splicing fitness (ln)” value runs as follows: (30 °C) -1.99 ± 0.071; (37 °C) -0.526 ± 0.091.

Regarding GUCGAGCAAUAUUACGUAGG, the “self-splicing fitness (ln)” value (30 °C) was -3.66 ± 0.18 and the “self-splicing fitness (ln)” value (37 °C) was -2.08 ± 0.16.

Consider CAUAAGCAAUAUUACGACGA, for which the “self-splicing fitness (ln)” value by setting is: (30 °C) -2.01 ± 0.17; (37 °C) -0.546 ± 0.11.

With CGAAAGCAAUAUUACGGGCU, the “self-splicing fitness (ln)” value by setting is: (30 °C) -2.74 ± 0.14; (37 °C) -1.55 ± 0.17.

For UAUUAGCAAUAUUACGGAGC, the “self-splicing fitness (ln)” value (30 °C) is -2.4 ± 0.42.

Regarding GGGAAGCAAUAUUACGUAGC, the “self-splicing fitness (ln)” value is -1.84 ± 0.18 (30 °C) and -1.37 ± 0.16 (37 °C).

On to CAGGAGCAAUAUUACGGAGC, for which the “self-splicing fitness (ln)” value is -2.2 ± 0.39 (30 °C) and -3.3 ± 0.47 (37 °C).

As to GACGAGCAAUAUUACGACGA, the “self-splicing fitness (ln)” value (30 °C) was -0.98 ± 0.11 and the “self-splicing fitness (ln)” value (37 °C) is -1.07 ± 0.12.

For GCGAAGCAAUAUUACGGCUC, the “self-splicing fitness (ln)” value runs as follows: (30 °C) -1.78 ± 0.17; (37 °C) -2.01 ± 0.25.

As for CAACAGCAAUAUUACGGUGA, the “self-splicing fitness (ln)” value by setting is: (30 °C) -1.58 ± 0.071; (37 °C) -0.727 ± 0.084.

On to AGCCAGCAAUAUUACGAUGG, for which the “self-splicing fitness (ln)” value runs as follows: (30 °C) -4.33 ± 0.26; (37 °C) -2.28 ± 0.19.

For GCUGAGCAAUAUUACGGGCU, the “self-splicing fitness (ln)” value (30 °C) was -1.89 ± 0.31.

On to UUGUAGCAAUAUUACGUCAC, for which the “self-splicing fitness (ln)” value (30 °C) was -2.56 ± 0.39.

Turning to CAGAAGCAAUAUUACGGUUU, the “self-splicing fitness (ln)” value (30 °C) is -2.93 ± 0.093 and the “self-splicing fitness (ln)” value (37 °C) was -2.83 ± 0.12.

For the sequence CCUCAGCAAUAUUACGACUU, the “self-splicing fitness (ln)” value was -3.69 ± 0.42 (30 °C) and -2.43 ± 0.26 (37 °C).

Regarding GAGGAGCAAUAUUACGCCAC, for the setting “37 °C”, the “self-splicing fitness (ln)” value is -2.39 ± 0.37.

For CCCGAGCAAUAUUACGGUCU, the “self-splicing fitness (ln)” value by setting is: (30 °C) -2.83 ± 0.21; (37 °C) -1.85 ± 0.23.

Consider ACAUAGCAAUAUUACGUGAG, for which the “self-splicing fitness (ln)” value was -0.863 ± 0.036 (30 °C) and -0.206 ± 0.062 (37 °C).

With UGAUAGCAAUAUUACGCCUU, the “self-splicing fitness (ln)” value is -3.11 ± 0.31 (30 °C) and -1.32 ± 0.2 (37 °C).

For the sequence ACACAGCAAUAUUACGGGGA, the “self-splicing fitness (ln)” value (30 °C) is -2.3 ± 0.077 and the “self-splicing fitness (ln)” value (37 °C) is -0.729 ± 0.067.

On to UUCUAGCAAUAUUACGCGGU, for which the “self-splicing fitness (ln)” value reads like this: (30 °C) -2.74 ± 0.2; (37 °C) -0.435 ± 0.24.

Regarding CGCAAGCAAUAUUACGGUCU, the “self-splicing fitness (ln)” value reads like this: (30 °C) -0.969 ± 0.066; (37 °C) -0.898 ± 0.081.

For CCAGAGCAAUAUUACGUACA, the “self-splicing fitness (ln)” value (37 °C) is -2.77 ± 0.29.

Consider UCGUAGCAAUAUUACGGAGU, for which the “self-splicing fitness (ln)” value (30 °C) is -2.81 ± 0.24.

Consider ACGUAGCAAUAUUACGUAGA, for which the “self-splicing fitness (ln)” value is -3.58 ± 0.42 (30 °C) and -2.86 ± 0.41 (37 °C).

For the sequence AAUCAGCAAUAUUACGCGCU, the “self-splicing fitness (ln)” value (30 °C) is -1.16 ± 0.075 and the “self-splicing fitness (ln)” value (37 °C) was -0.732 ± 0.084.

Consider CCUGAGCAAUAUUACGCUCA, for which the “self-splicing fitness (ln)” value is -1.37 ± 0.28 (30 °C) and -1.94 ± 0.38 (37 °C).

Consider GCACAGCAAUAUUACGAGGA, for which the “self-splicing fitness (ln)” value (30 °C) is -2.11 ± 0.096 and the “self-splicing fitness (ln)” value (37 °C) was -1.23 ± 0.099.

Take CGUUAGCAAUAUUACGUCCA: the “self-splicing fitness (ln)” value runs as follows: (30 °C) -2.04 ± 0.41; (37 °C) -1.13 ± 0.48.

Take AGCGAGCAAUAUUACGUCGG: the “self-splicing fitness (ln)” value by setting is: (30 °C) -3.45 ± 0.32; (37 °C) -2.08 ± 0.25.

For GACUAGCAAUAUUACGGACA, the “self-splicing fitness (ln)” value (30 °C) is -0.472 ± 0.1 and the “self-splicing fitness (ln)” value (37 °C) is -0.0878 ± 0.11.

As for UAAAAGCAAUAUUACGCAAU, the “self-splicing fitness (ln)” value runs as follows: (30 °C) -3.58 ± 0.17; (37 °C) -1.6 ± 0.13.

As to UCACAGCAAUAUUACGGUCG, the “self-splicing fitness (ln)” value by setting is: (30 °C) -0.0254 ± 0.054; (37 °C) 0.119 ± 0.061.

On to AGGAAGCAAUAUUACGAUAA, for which the “self-splicing fitness (ln)” value is -1.9 ± 0.21 (30 °C) and -1.33 ± 0.29 (37 °C).

In the case of GUGCAGCAAUAUUACGAGCU, the “self-splicing fitness (ln)” value is -1.45 ± 0.062 (30 °C) and -0.353 ± 0.082 (37 °C).

With AAACAGCAAUAUUACGACCU, the “self-splicing fitness (ln)” value (30 °C) is -0.0846 ± 0.062 and the “self-splicing fitness (ln)” value (37 °C) is -0.604 ± 0.076.

On to ACAAAGCAAUAUUACGUAUU, for which the “self-splicing fitness (ln)” value (30 °C) is -1.94 ± 0.086 and the “self-splicing fitness (ln)” value (37 °C) is -1.18 ± 0.11.

In the case of UACAAGCAAUAUUACGCAGG, the “self-splicing fitness (ln)” value by setting is: (30 °C) -2.78 ± 0.11; (37 °C) -1.7 ± 0.095.
